{"source": "patent US20240074473A1", "about": "“METHOD FOR INDUCING HYPERTROPHIC MUSCLE FIBERS FOR INDUSTRIAL MEAT PRODUCTION” (Yeda Research and Development Co. Ltd., priority 2021, published 2024)", "key": {"[1]": {"test": "Risk categorization of cell culture media ingredients", "excerpt": "Category 1: These cell culture media components are food ingredients/additives that are GRAS or permitted by federal regulation without limitation on use. Exemplary compounds in this category include innocuous ingredients such as sugars, pH buffers, water soluble vitamins, and common antioxidants such as tocopherols.\nCategory 2: These cell culture media components are common dietary nutrients and are anticipated to have GRAS status for food use or be permitted by regulation for addition to food. Examples of such compounds include most of the inorganic salts and macronutrients that are present within the cell culture media. […] Majority of nutrients present within the poultry cell-based meat may be readily measured using common validated methods for food composition testing. […]\nFor example, situations where the compound is not detectable in finished product or is present at equivalent levels in comparator foods, compounds that are thermo-labile and will be digested during cooking, and/or compounds that are expected to be digested to innocuous compounds following ingestion. […] For Category 3 substances a final consideration in the safety assessment process may involve hazard characterization of the potential for a substance to produce toxic biological effects outside of the endpoints measured in a sub-chronic rat toxicity study. […]"}, "[2]": {"test": "Maximum estimated dietary exposure to media ingredients per 100 g serving", "details": "assumption of complete transfer of media components to the finished product on a wt/wt basis"}}, "data": [{"molecule": "Bovine Transferrin: iron carrier of cell culture media (protein, UniProt Q29443 20-704, looked up) Serotransferrin: DPERTVRWCTISTHEANKCASFRENVLRILESGPFVSCVKKTSHMDCIKAISNNEADAVTLDGGLVYEAGLKPNNLKPVVAEFHGTKDNPQTHYYAVAVVKKDTDFKLNELRGKKSCHTGLGRSAGWNIPMAKLYKELPDPQESIQRAAANFFSASCVPCADQSSFPKLCQLCAGKGTDKCACSNHEPYFGYSGAFKCLMEGAGDVAFVKHSTVFDNLPNPEDRKNYELLCGDNTRKSVDDYQECYLAMVPSHAVVARTVGGKEDVIWELLNHAQEHFGKDKPDNFQLFQSPHGKDLLFKDSADGFLKIPSKMDFELYLGYEYVTALQNLRESKPPDSSKDECMVKWCAIGHQERTKCDRWSGFSGGAIECETAENTEECIAKIMKGEADAMSLDGGYLYIAGKCGLVPVLAENYKTEGESCKNTPEKGYLAVAVVKTSDANINWNNLKDKKSCHTAVDRTAGWNIPMGLLYSKINNCKFDEFFSAGCAPGSPRNSSLCALCIGSEKGTGKECVPNSNERYYGYTGAFRCLVEKGDVAFVKDQTVIQNTDGNNNEAWAKNLKKENFEVLCKDGTRKPVTDAENCHLARGPNHAVVSRKDKATCVEKILNKQQDDFGKSVTDCTSNFCLFQSNSKDLLFRDDTKCLASIAKKTYDSYLGDDYVRAMTNLRQCSTSKLLEACTFHKP", "values": [{"measurement": "Risk Assessment Category", "setting": "[1]", "result": 3}, {"measurement": "Maximum Estimated Exposure per 100 g serving", "setting": "[2]", "result": 150, "unit": "mg"}]}]}
